From publication PMC9124786, “A One-Step Electrochemical Aptasensor Based on Signal Amplification of Metallo Nanoenzyme Particles for Vascular Endothelial Growth Factor” come the findings set out here.

This data set has as its target VEGF165 (VEGF A165) (UniProt P15692-4 27-191). Briefly: electrochemical impedance spectroscopy (aptasensor); 10 pg/ml-1 ug/ml VEGF, 60 min; LOD 8.2 pg/ml (not a Kd); VEGF incubated 60 min (37 C in the time optimisation) on BSA-blocked aptamer/CME NP electrode, water wash; EIS in 0.1 M PBS pH 7.4 with 5 mM [Fe(CN)6]3-/4-. The following applies: protein: commercial; chain copies: 2; hairpin.

Chain of VEGF165 (VEGF A165) (P15692 other isoform, or with tags, fused parts or gaps): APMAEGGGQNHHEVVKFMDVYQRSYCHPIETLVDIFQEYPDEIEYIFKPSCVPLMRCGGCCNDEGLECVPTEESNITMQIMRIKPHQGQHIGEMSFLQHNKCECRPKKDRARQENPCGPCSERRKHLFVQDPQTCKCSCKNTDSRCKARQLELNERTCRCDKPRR

B1: VEGF aptamer with 5' A10 spacer (structured_DNA)
DNA: AAAAAAAAAACCGTCTTCCAGACAAGAGTGCAGGGAAAAAGAAGACGG
modifications: 5' carboxylic acid
As for B1, the binding result was “binds”.
